Reference: article PMC9896449

Legend:
[1] = molecular target: ShAb01H02K (knob-in-hole heterodimer of ShAb01-Fc and ShAb02-Fc) (nurse shark (Ginglymostoma cirratum)); assay: BLI
[2] = molecular target: BiShAb0201 (ShAb02 VNAR - (GGGGS)5 - ShAb01 VNAR - human IgG1 Fc) (nurse shark (Ginglymostoma cirratum)); assay: BLI

Substance	Kd [1] [nM]	koff [1] [s⁻¹]	kon [1] [M⁻¹ s⁻¹]	Kd [2] [nM]	koff [2] [s⁻¹]	kon [2] [M⁻¹ s⁻¹]
SARS-CoV-2 RBD B.1.1.529, Omicron BA.1 (from UniProt P0DTC2 331-527) (domain or fragment)	24.5	0.00175	71300	15.1	0.00154	102000
SARS-CoV-2 RBD B.1.1.529.2, Omicron BA.2 (from UniProt P0DTC2 331-527) (domain or fragment)	24.1	0.00186	77000	33.2	0.000749	22600
SARS-CoV-2 RBD B.1.1.529.2.12.1, Omicron BA.2.12.1 (from UniProt P0DTC2 331-527) (domain or fragment)	17.4	0.00171	98500	46.9	0.000922	19700
SARS-CoV-2 RBD Omicron BA.4/5 (from UniProt P0DTC2 331-527) (domain or fragment)	5.6	0.000692	123000	14.9	0.000767	51500
